{"source": "IntAct's records for PubMed 19250911", "parents": {"B1": {"name": "Next to BRCA1 gene 1 protein (Homo sapiens), Q14596 (parent)", "chain": "MEPQVTLNVTFKNEIQSFLVSDPENTTWADIEAMVKVSFDLNTIQIKYLDEENEEVSINSQGEYEEALKMAVKQGNQLQMQVHEGHHVVDEAPPPVVGAKRLAARAGKKPLAHYSSLVRVLGSDMKTPEDPAVQSFPLVPCDTDQPQDKPPDWFTSYLETFREQVVNETVEKLEQKLHEKLVLQNPSLGSCPSEVSMPTSEETLFLPENQFSWHIACNNCQRRIVGVRYQCSLCPSYNICEDCEAGPYGHDTNHVLLKLRRPVVGSSEPFCHSKYSTPRLPAALEQVRLQKQVDKNFLKAEKQRLRAEKKQRKAEVKELKKQLKLHRKIHLWNSIHGLQSPKSPLGRPESLLQSNTLMLPLQPCTSVMPMLSAAFVDENLPDGTHLQPGTKFIKHWRMKNTGNVKWSADTKLKFMWGNLTLASTEKKDVLVPCLKAGHVGVVSVEFIAPALEGTYTSHWRLSHKGQQFGPRVWCSIIVDPFPSEESPDNIEKGMISSSKTDDLTCQQEETFLLAKEERQLGEVTEQTEGTAACIPQKAKNVASERELYIPSVDLLTAQDLLSFELLDINIVQELERVPHNTPVDVTPCMSPLPHDSPLIEKPGLGQIEEENEGAGFKALPDSMVSVKRKAENIASVEEAEEDLSGTQFVCETVIRSLTLDAAPDHNPPCRQKSLQMTFALPEGPLGNEKEEIIHIAEEEAVMEEEEDEEDEEEEDELKDEVQSQSSASSEDYIIILPECFDTSRPLGDSMYSSALSQPGLERGAEGKPGVEAGQEPAEAGERLPGGENQPQEHSISDILTTSQTLETVPLIPEVVELPPSLPRSSPCVHHHGSPGVDLPVTIPEVSSVPDQIRGEPRGSSGLVNSRQKSYDHSRHHHGSSIAGGLVKGALSVAASAYKALFAGPPVTAQPIISEDQTAALMAHLFEMGFCDRQLNLRLLKKHNYNILQVVTELLQLNNNDWYSQRY"}, "B2": {"name": "Next to BRCA1 gene 1 protein (Homo sapiens), Q14596 (parent)", "chain": "B1 chain", "partner": "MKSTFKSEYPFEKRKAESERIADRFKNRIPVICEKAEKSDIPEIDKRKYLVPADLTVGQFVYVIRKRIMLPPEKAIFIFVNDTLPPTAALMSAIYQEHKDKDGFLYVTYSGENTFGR"}}, "key": {"[1]": {"variants_of": "B1", "conditions": "with gbrap_human GABARAP"}, "[2]": {"variants_of": "B1", "conditions": "with gbrl2_human GABARAPL2, P60520"}, "[3]": {"variants_of": "B1", "conditions": "with mlp3b_human MAP1LC3B"}, "atg8_yeast ATG8, P38182": {"variants_of": "B2", "conditions": "with atg8_yeast ATG8, P38182"}}}
{"variant": "Y732A", "values": [{"measurement": "effect of a mutation on the interaction", "setting": "[1]", "value": "decreasing interaction"}, {"measurement": "effect of a mutation on the interaction", "setting": "[2]", "value": "decreasing interaction"}, {"measurement": "effect of a mutation on the interaction", "setting": "[3]", "value": "decreasing interaction"}]}
{"variant": "Y732A", "values": [{"measurement": "effect of a mutation on the interaction", "setting": "atg8_yeast ATG8, P38182", "value": "decreasing interaction"}]}
